Here are results for five molecules from patent publication US20040162413A1 (published 2004).

Test [1] has as its target T1, CD40-Ig fusion protein (UniProt P25942 21-193).
T1 construct: also called CD40-Ig antigen; CD40 receptor; not shown: Ig part, not described; in the ELISA and capture lift it is detected with goat anti-mouse IgG2b conjugate
In words: SPR (BIAcore), CD40-Ig immobilised, purified Fab in solution.

Test [2] concerns the target T1, CD40-Ig fusion protein. Kind of test: SPR (BIAcore), CD40-Ig immobilised. (Surface plasmon resonance follows binding to a sensor surface in real time, without labels.)
Test [3] addresses T2, human von Willebrand Factor (human, UniProt P04275 764-2813).
T2 construct: In the ELISA captured on plates by goat anti-human vWF; biotinylated in the plaque lift; also called vWF; human vWF
Kind of test: ELISA: human vWF captured on goat anti-human vWF coated plates, Fab dilutions, goat anti-human kappa alkaline phosphatase, O.D. 560 after 30 min.

For orientation: Kd means the free concentration of one partner at which half of the binding sites on the other are occupied at equilibrium, for simple one-to-one binding. Usually EC50 (read off the curve) stands for the concentration that produces a half-maximal response. High values mean weaker potency, low ones greater potency.

T1 sequence (P25942 21-193): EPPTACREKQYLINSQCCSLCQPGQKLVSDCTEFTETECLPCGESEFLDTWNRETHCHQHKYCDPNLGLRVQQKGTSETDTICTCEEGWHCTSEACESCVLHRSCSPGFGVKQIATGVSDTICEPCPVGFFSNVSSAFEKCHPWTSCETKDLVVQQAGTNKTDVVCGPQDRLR

B1: Y49K, derivative of clone CW43 made by site-directed mutagenesis (anti-CD40 Fab) (Fab, V domains shown)
VH: QVQLVQSGPELKKPGASVKVSCKASGYAFTTTGMQWVRQAPGQGLEWMGWINTHSGVPKYVEDFKGRFVFSLDTSVSTAYLQISSLKAEDTAVYFCARSGNGNYDLAYFRYWGQGTLVTVSS
VL: EIVLTQSPATLSLSPGERATLSCRASQSISDYLHWYQQKPGQAPRLLIKYASHSISGIPARFSGSGSGTDFTLTISSLEPEDFAVYYCQHGHSFPRTFGGGTKVEIK
notes: Fab, human constant regions; framework identical to clone 1H11; also called clone Y49K
B1: binding in the test with CD40-Ig fusion protein [1] was characterised by a dissociation constant (Kd) of 53.4 nM. For the same molecule, the “fold lower affinity against CW43” value with CD40-Ig fusion protein [2] was 5 fold.

B2: chimeric anti-CD40 Fab (variable regions of murine mAb 40.2.220) (Fab, V domains shown)
VH: QIQLVQSGPELKKPGETVRISCKASGYAFTTTGMQWVQEMPGKGLKWIGWINTHSGVPKYVEDFKGRFAFSLETSANTAYLQISNLKNEDTATYFCVRSGNGNYDLAYFAYWGQGTLVTVSA
VL: DIVLTQSPATLSVTPGDRVSLSCRASQSISDYLHWYQQKSHESPRLLIKYASHSISGIPSRFSGSGSGSDFTLSINSVEPEDVGIYYCQHGHSFPRTFGGGTKLEIK
notes: Fab expressed in bacteria from vector M13IX104CS (human kappa and gamma 1 constant regions, terminal cysteines replaced by serine); purified Fabs carry a six-histidine tag at the C-terminus of the H chain; also called chimeric Fab; chimeric CD40
B2 gave a Kd with CD40-Ig fusion protein [1] of 48.3 nM.

B3: NMC-4 antibody (parental/donor antibody) (antibody, V domains shown)
VH: VQLLESGPGLVAPSQSLSITCTVSGFSLTDYGVDWVRQPPGKGLEWLGMIWGDGSTDYNSALKSRLSITKDNSKSQVFLKMNSLQTDDTARYYCVRDPADYGNYDYALDYWGQGTSVTVS
VL: SSLSASLGDRVTISCSASQDINKYLNWYQQKPDGAVKLLIFYTSSLHSGVPSRFSGSGSGTDYSLTISNLEPEDIATYYCQQYEKLPWTFGGGTKLEVK
notes: also called parental/donor NMC-4 antibody
As to B3, the “EC50 (read off the curve)” value in test [3] was about 0.03 µg/mL.

B4: anti-vWF combinatorial library clone C1 Fab (Fab, V domains shown)
VH: EVQLVESGGGLVQPGGSLRLSCAASGFSLGDYGVDWVRQAPGKGLEWVGMIWPDGSTDYNSALQSRFTISRDDSKNSLYLQMNSLKTEDTAVYYCARDPADYGNYNYALDYWGQGTTVTVS
VL: DIQMTQSPSSLSASVGDRVTITCSASQDINDYLNWYQQKPGKAPKLLIYNTSSLHSGVPSRFSGSGSGTDFTLTISSLQPEDFATYYCQQYEDLPWTFGGGTKVEIK
notes: Fab with human CL and CH1
Regarding B4, in test [3], the “EC50 (read off the curve)” value is about 0.02 µg/mL.

B5: anti-vWF combinatorial library clone C4 Fab (Fab, V domains shown)
VH: EVQLVESGGGLVQPGGSLRLSCAASGFSLGDYGVDWVRQAPGKGLEWVGMIWGDGSVDVNSALQSRFTISRDDSKNSLYLQMNSLKTEDTAVYYCARDPADYGNYNYALDYWGQGTTVTVS
VL: DIQMTQSPSSLSASVGDRVTITCSASQDINDYLNWYQQKPGKAPKLLIYGTSSLHSGVPSRFSGSGSGTDFTLTISSLQPEDFATYYCQQYEDLPWTFGGGTKVEIK
notes: Fab with human CL and CH1
Consider B5, for which, in test [3], the “EC50 (read off the curve)” value is about 0.02 µg/mL.
